Assay results published in US20220017615A1 (SHANGHAI PHARMAEXPLORER, published 2022).
Where a chain is given by its changes, count along the chain named. Each block holds one binder with its values, some of them ahead of it.

What was measured:
[1] = target: T1, His-tagged CD47 recombinant protein, CD47-His (human, UniProt Q08722 19-141, limits assumed); assay: BLI (Octet Red 96), antibody on AHC sensor, CD47-His 100 nM
T1 construct: it is not restated for CD47-His; also called human CD47-His protein; antigen CD47-His; not shown: His tag

[2] = target: T2, human CD47, full length, on transfected cells (human, UniProt Q08722 19-323); assay: FACS CHOK1-hCD47; Ab 8 nM
T2 construct: whole, on cells; also called CHOK1-hCD47
Procedure: (§1) The CHOK1-hCD47 stable cell lines and CHOK1-cCD47 stable cell lines were expanded to 90% confluence in a T-75 cell culture flask, the medium was exhausted, washed twice with HBSS buffer (Hanks balanced salt solution) (purchased from Invitrogen), and then treated and collected with enzyme-free cell dissociation solution (Versene solution: purchased from Life technology). The cells were washed twice with HBSS buffer. After counted, the cells were diluted with HBSS to 2×10⁶ cells per ml, added with 1% goat serum blocking solution, wherein the percentage was the mass percantage, incubated on ice for 30 minutes, and then washed twice with HBSS by centrifugation. […] The plate was washed 3 times with FACS buffer by centrifugation, added with 100 μl fixative solution [4% (v/v) Paraformaldehyde] per well to suspend the cells. 10 minutes later, it was washed twice with FACS buffer by centrifugation. The cells were suspended with 100 microliters of FACS buffer, FACS (FACS Calibur, purchased from BD) was used for detection and the results were analyzed.

[3] = target: T3, cynomolgus CD47, on CHOK1-cCD47 stable cell line (cynomolgus); assay: FACS CHOK1-cCD47; Ab 8 nM
T3 construct: whole, on cells; check before use; also called CHOK1/cynoCD47; monkey-derived CD47
Procedure: as §1

[4] = target: T2, human CD47, full length, on transfected …; assay: FACS CHOK1-hCD47; Ab 40 nM
Procedure: as §1

[5] = target: T3, cynomolgus CD47, on CHOK1-cCD47 stable …; assay: FACS CHOK1-cCD47; Ab 40 nM
Procedure: as §1

[6] = target: T2, human CD47, full length, on transfected …; assay: FACS CHOK1-hCD47; Ab 1.6 nM
Procedure: as §1

[7] = target: T2, human CD47, full length, on transfected …; assay: FACS CHOK1-hCD47; Ab 200 nM
Procedure: as §1

[8] = target: T3, cynomolgus CD47, on CHOK1-cCD47 stable …; assay: FACS CHOK1-cCD47; Ab 1.6 nM
Procedure: as §1

[9] = target: T3, cynomolgus CD47, on CHOK1-cCD47 stable …; assay: FACS CHOK1-cCD47; Ab 200 nM
Procedure: as §1

[10] = target: T2, human CD47, full length, on transfected …; assay: FACS CHOK1-hCD47; Ab 0.32 nM
Procedure: as §1

[11] = target: T3, cynomolgus CD47, on CHOK1-cCD47 stable …; assay: FACS CHOK1-cCD47; Ab 0.32 nM
Procedure: as §1

[12] = target: T2, human CD47, full length, on transfected …; assay: FACS CHOK1-hCD47; Ab 0.064 nM
Procedure: as §1

[13] = target: T3, cynomolgus CD47, on CHOK1-cCD47 stable …; assay: FACS CHOK1-cCD47; Ab 0.064 nM
Procedure: as §1

[14] = target: T2, human CD47, full length, on transfected …; assay: FACS CHOK1-hCD47; Ab 0.0128 nM
Procedure: as §1

[15] = target: T3, cynomolgus CD47, on CHOK1-cCD47 stable …; assay: FACS CHOK1-cCD47; Ab 0.0128 nM
Procedure: as §1

[16] = target: T1, His-tagged CD47 recombinant protein, …; assay: ELISA on coated CD47-His; Ab 0.004 nM
Procedure: (§2) The plate was sealed with plastic film and incubated at 4° C. overnight. The plate was washed twice with plate washing solution [PBS+0.01% (v/v) Tween20] the next day, and blocking solution [PBS+0.01% (v/v) Tween20 +1% (w/w) BSA] was added to block it at room temperature for 2 hours. […] After incubation at 37° C. for 2 hours, the plates were washed three times with plate washing solution [PBS+0.01% (v/v) Tween 20]. HRP (horseradish peroxidase) labeled secondary antibody (purchased from Sigma) was added, incubated at 37° C. for 2 hours, and then washed three times with plate washing solution [PBS+0.01% (v/v) Tween 20]. 1000 of TMB substrate was added to each well. After incubated at room temperature for 30 minutes, the plate was added with 100 μl of stop solution (1.0N HCl) to each well.

[17] = target: T1, His-tagged CD47 recombinant protein, …; assay: ELISA on coated CD47-His; Ab 0.021 nM
Procedure: as §2

[18] = target: T1, His-tagged CD47 recombinant protein, …; assay: ELISA on coated CD47-His; Ab 0.107 nM
Procedure: as §2

[19] = target: T1, His-tagged CD47 recombinant protein, …; assay: ELISA on coated CD47-His; Ab 0.533 nM
Procedure: as §2

[20] = target: T1, His-tagged CD47 recombinant protein, …; assay: ELISA on coated CD47-His; Ab 2.667 nM
Procedure: as §2

[21] = target: T1, His-tagged CD47 recombinant protein, …; assay: ELISA on coated CD47-His; Ab 13.333 nM
Procedure: as §2

[22] = target: T1, His-tagged CD47 recombinant protein, …; assay: ELISA on coated CD47-His; Ab 66.667 nM
Procedure: as §2

[23] = target: T2, human CD47, full length, on transfected …; assay: FACS CHOK1-hCD47; Ab 0 nM (background)
Procedure: as §1

[24] = target: T3, cynomolgus CD47, on CHOK1-cCD47 stable …; assay: FACS CHOK1-cCD47; Ab 0 nM (background)
Procedure: as §1

[25] = target: T1, His-tagged CD47 recombinant protein, …; assay: ELISA on coated CD47-His; Ab 0 nM (background)
Procedure: as §2

[26] = target: T4, biotin-labeled CD47 extracellular domain protein (CD47-ECD) (UniProt Q08722 19-139, limits assumed, biotin-labeled (sites not given)); assay: blocking ELISA, biotin-CD47-ECD on coated SIRPα-hFc; Ab 0 nM
T4 construct: extracellular domain; also called CD47 protein

[27] = target: T4, biotin-labeled CD47 extracellular …; assay: blocking ELISA, biotin-CD47-ECD on coated SIRPα-hFc; Ab 8 nM
Procedure: (§3) The plate was sealed with plastic film and incubated at 4° C. overnight. The plate was washed twice with plate washing solution [PBS+0.01% (v/v) Tween20] on the next day, and blocking solution [PBS+0.01% (v/v) Tween20 +1% (w/w) BSA] was added to block it at room temperature for 2 hours. […] After incubation at 37° C. for 2 hours, the plate was washed three times with the plate washing solution [PBS+0.01% (v/v) Tween 20]. HRP (horseradish peroxidase) labeled avidin diluent (purchased from Sigma) was added as 100 microliters per well, and after the plate was incubated for 2 hours at 37° C., it was washed 3 times with washing solution [PBS+0.01% (v/v) Tween 20]. 100 μl of TMB substrate was added to each well. After incubated at room temperature for 30 minutes, the plate was added with 100 μl of stop solution (1.0N HCl) to each well.

[28] = target: T4, biotin-labeled CD47 extracellular …; assay: blocking ELISA, biotin-CD47-ECD on coated SIRPα-hFc; Ab 40 nM
Procedure: as §3

[29] = target: T4, biotin-labeled CD47 extracellular …; assay: blocking ELISA, biotin-CD47-ECD on coated SIRPα-hFc; Ab 1.6 nM
Procedure: as §3

[30] = target: T4, biotin-labeled CD47 extracellular …; assay: blocking ELISA, biotin-CD47-ECD on coated SIRPα-hFc; Ab 200 nM
Procedure: as §3

[31] = target: T4, biotin-labeled CD47 extracellular …; assay: blocking ELISA, biotin-CD47-ECD on coated SIRPα-hFc; Ab 0.32 nM
Procedure: as §3

[32] = target: T4, biotin-labeled CD47 extracellular …; assay: blocking ELISA, biotin-CD47-ECD on coated SIRPα-hFc; Ab 0.064 nM
Procedure: as §3

[33] = target: T4, biotin-labeled CD47 extracellular …; assay: blocking ELISA, biotin-CD47-ECD on coated SIRPα-hFc; Ab 0.0128 nM
Procedure: as §3

Kd [1]: 2.41 nM
koff [1]: 0.00103 s⁻¹
kon [1]: 428000 M⁻¹ s⁻¹
B1: c51E2F11 (antibody, V domains shown)
VH: EVQLQQSGAELVKPGASVKLSCTASGFNIKDHYIHWMNQRTEQGLEWIGRIDPDDGETRYAPKFRGKATLTADTSSNTAYLQFSSLTSEDTAVYHCTRATTITRDWYFDVWGTGTTVTVSS
VL: DIVMTQSQKFMSTSVGDRVSITCKASQNVRTSVAWYQQKPGQSPKALIYLASNRHTGIPDRFTGSGSGTDFTLTIRNVQSEDLADYFCLQHWDYPLTFGAGTKLELK

Kd [1]: 1.39 nM
koff [1]: 0.000478 s⁻¹
kon [1]: 343000 M⁻¹ s⁻¹
B2: c54G8G6 (antibody, V domains shown)
VH: QVQLQQPGADLVKPGASVKMSCKASGYTFTSYWIIWVKQRPGQGLEWIGDINPGRGSPNYNEKFKRKATLTVDTSSSTAYMQLSSLTSEDSAVYYCVRGGLRRFDHWGQGTLVTVSA
VL: ENVLTQSPAIMSASPGEKVTMTCRASSSVSSSYLHWYQQKSGASPKLWIYSTSTLASGVPARFSGSGSGTSYSLTISSVEAEDAATYYCQQYSGYPYTFGGGTKLEIK

mean fluorescence intensity [2]: 8450
mean fluorescence intensity [3]: 12100
mean fluorescence intensity [4]: 8900
mean fluorescence intensity [5]: 13900
mean fluorescence intensity [6]: 4850
mean fluorescence intensity [7]: 10500
mean fluorescence intensity [8]: 7190
mean fluorescence intensity [9]: 8870
mean fluorescence intensity [10]: 1710
mean fluorescence intensity [11]: 2540
mean fluorescence intensity [12]: 480
mean fluorescence intensity [13]: 667
mean fluorescence intensity [14]: 113
mean fluorescence intensity [15]: 218
OD450 nm [16]: 0.18
OD450 nm [17]: 0.69
OD450 nm [18]: 2.13
OD450 nm [19]: 2.94
OD450 nm [20]: 3.03
OD450 nm [21]: 2.91
OD450 nm [22]: 2.91
mean fluorescence intensity [23]: 21.9
mean fluorescence intensity [24]: 75.5
OD450 nm [25]: 0.05
OD450 nm of CD47 bound to SIRPα [26]: 2.84
OD450 nm of CD47 bound to SIRPα [27]: 0.06
OD450 nm of CD47 bound to SIRPα [28]: 0.06
OD450 nm of CD47 bound to SIRPα [29]: 0.15
OD450 nm of CD47 bound to SIRPα [30]: 0.06
OD450 nm of CD47 bound to SIRPα [31]: 0.77
OD450 nm of CD47 bound to SIRPα [32]: 2.45
OD450 nm of CD47 bound to SIRPα [33]: 2.76
B3: 4D10B11 (antibody, V domains shown)
VH: QVQLQQSGPELVKPGASVKISCKASGYSFTSYYIHWVKQRPGQGLEWIGWIYPGSGNTKYNEKFKGKATLTADTSSSTADMQLSSLTSEDSAVYYCARRGDWYFDVWGTGTTVTVSS
VL: DIVMSQSPSSLVVSVGEKVTMNCKSSQSLLFSGNQKSSLAWYQQKPGQSPKLLIYWASTRESGVPDRFTGSGSGTDFTLIISTVKAEDLAVYSCQQYYSYPLTFGAGTKLELK
notes: Murine hybridoma antibody purified on protein G

Kd [1]: 1.06 nM
koff [1]: 0.000284 s⁻¹
kon [1]: 268000 M⁻¹ s⁻¹
B4: c4D10B11 (antibody, V domains shown)
VH: B3 VH
VL: B3 VL

Kd [1]: 3.7 nM
koff [1]: 0.000867 s⁻¹
kon [1]: 234000 M⁻¹ s⁻¹
B5: c25E3B5 (antibody, V domains shown)
VH: QVQLQQPGTALVRPGSSVKLSCKASGYTFTSYWMHWVRQRPIKGLEWIGNIDPSDSETHYNQRFKDKVTLTVDKSSNTAYMQLSSLTSEDSAVYYCARWKYHGIGAMDYWGQGTSVTVSS
VL: DVQITQSPSYLAASPGETVTISCRTNRNISKFLAWYQEKPGKTNKLLIYSGSTLHSGIPSRFSGSGSGTDFTLTISRLEPEDFAMYYCQQHNEYPWSFGGGTKLEIK

Kd [1]: 0.695 nM
koff [1]: 0.000202 s⁻¹
kon [1]: 290000 M⁻¹ s⁻¹
B6: c20H4G5 (antibody, V domains shown)
VH: QVQLQQPGAELVRPGSSVRLSCVTSGYTFTSHWMHWVKQGPIKGLEWIGNIDPSDSETHYNQKFKDKATLTVDKSSSTAYMQLSRLTSDDSAVYYCARWRHLGIGAMDYWGQGTSVIVSS
VL: B5 VL with V19I, S22N, T25A, N26S, R27K, E38A, T43S, K45N, H55Q, S97T

Kd [1]: 0.982 nM
koff [1]: 0.000362 s⁻¹
kon [1]: 369000 M⁻¹ s⁻¹
B7: c132D1E5 (antibody, V domains shown)
VH: QVQLQQPGAELVRPGSSVKLSCKASGYTFTNNWMHWVKQRPLQGLEWIGNIDPSDSETHYNQKFKDKATLTVDKSSTTAYIQLSSLTSEDSAVYYCARWRGGGRGAMDYWGQGTSVTVSS
VL: B5 VL with V19I, S22N, N26S, R27K, H55Q, R77N, S97T, G100R
